Source: publication PMC13039401

Target: MdtJ-His6 (Lawsonia intracellularis MdtJ, orphan, Cys-less)
Assay: size exclusion chromatography with densitometry of blot fractions
Details: parent: est. 36; read off a plot

FtsH-His6 (E. coli FtsH, wild type) (from UniProt P0AAI3) S2K; K6A; N7L; Q23L
response: 11%
